Results from publication doi:10.1101/2024.11.01.621267 (bioRxiv, 2024).

B1: HsLARP4 peptide 575–625 (peptide)
peptide: LNQTTIPVSPPSTTKPSRASTASPCNNNINAATAVALQEPRKLSYAEVCQK
notes: La-related protein 4 (LARP4), human, residues 575-625; source: synthetic peptide (GenScript)
B2: HsLARP4 peptide 612–625 (peptide)
peptide: QEPRKLSYAEVCQK
notes: La-related protein 4 (LARP4), human, residues 612-625; source: synthetic peptide (GenScript)
B3: HsLARP4 peptide 615–625 (peptide)
peptide: RKLSYAEVCQK
notes: La-related protein 4 (LARP4), human, residues 615-625 (within CR2); source: synthetic peptide (GenScript)
B4: HsLARP4 peptide 587–637 (peptide)
peptide: TTKPSRASTASPCNNNINAATAVALQEPRKLSYAEVCQKPPKEPSSVLVQP
notes: La-related protein 4 (LARP4), human, residues 587-637; source: synthetic peptide (GenScript)

Target: recombinant full-length RACK1 protein (ITC) (human, UniProt P63244 1-317)
Test: ITC; LARP4 peptide (400 μM; 300 μM for 600–625) injected into RACK1 (40 μM; 30 μM) in the cell; iTC200; 298K; 20 mM HEPES, 300 mM NaCl, 10% glycerol, 1 mM DTT pH 7.5; triplicate
Settings: both partners purified

Row | Binder | Ka [M⁻¹] | Kd [nM] | dH [kcal/mol] | stoichiometry N
1 | B1 | 370000 | 2700 | -5.7 | 1
2 | B2 |  | 2000 | -8.3 | 0.8
3 | B3 |  | 3000 | -8.1 | 0.9
4 | B4 | 440000 | 2300 | -7.8 | 1
